The values below come from publication PMC3742261, “Integrated Self-Assembly of the Mms6 Magnetosome Protein to Form an Iron-Responsive Structure” (International Journal of Molecular Sciences, 2013).

In data set [1] the target is Mms6 W79A (Magnetospirillum magneticum strain AMB-1) (UniProt Q2W8R5). Description: SEC; Superose 12 column, protein loaded at 0.2 mg/mL, BC100 buffer (20 mM Tris, 100 mM KCl, pH 7.5), 4 °C; percent of total protein in the void volume by peak integration. For orientation: SEC sorts molecules by how far they enter the pores of the column.
The target of data set [2] is Mms6 W79F (Magnetospirillum magneticum strain AMB-1) (UniProt Q2W8R5). The data set is described as above.
For data set [3], the target named is Mms6 L128G (Magnetospirillum magneticum strain AMB-1) (UniProt Q2W8R5). The data set is described as above.
For data set [4], the target named is Mms6 I117G (Magnetospirillum magneticum strain AMB-1) (UniProt Q2W8R5). The data set is described as above.
For data set [5], the target named is Mms6 W95F (Magnetospirillum magneticum strain AMB-1) (UniProt Q2W8R5). Described as above.
Data set [6] concerns the target Mms6 L132G (Magnetospirillum magneticum strain AMB-1) (UniProt Q2W8R5). Described as above.
Data set [7] has as its target Mms6 L84A, L86A, L88A, L90A, L92A (GL repeat replaced with a GA repeat) (Magnetospirillum magneticum strain AMB-1) (UniProt Q2W8R5). Description: SEC; Superose 12 column, protein loaded at 1 mg/mL, 4 °C; percent of total protein in the void volume by peak integration.
Data set [8] shares this target. Description: SEC; Superose 12 column, protein loaded at 0.2 mg/mL, BC100 buffer (20 mM Tris, 100 mM KCl, pH 7.5), 4 °C; percent of total protein in the void volume by peak integration.
The target in data set [9] is Mms6 W79F,W95F (Magnetospirillum magneticum strain AMB-1) (UniProt Q2W8R5). Described as above.
In data set [10] the target is Mms6 (wild type, mature form, His-tagged) (Magnetospirillum magneticum strain AMB-1) (UniProt Q2W8R5). Described as above.
For data set [11], the target named is Mms6 W95A (Magnetospirillum magneticum strain AMB-1) (UniProt Q2W8R5). Described as above.
Data set [12] concerns the molecule itself. Description: SEC; Superdex Peptide 10/300 column, 80 micrograms C21Mms6, 10 mM Pi, pH 7.5; size from a standard curve.
Data set [13] concerns the molecule itself. Description: SEC; Superdex Peptide 10/300 column, 80 micrograms C21Mms6, 20 mM Tris, pH 7.5; size from a standard curve.
Data set [14] deals with the molecule itself. Description: SEC; Superdex Peptide 10/300 column, 80 micrograms C21Mms6, 20 mM Tris, 100 mM KCl, pH 7.5; size from a standard curve.
Data set [15] concerns the molecule itself. Description: SEC; Superdex Peptide 10/300 column, 80 micrograms C21Mms6, 10 mM Pi, 100 mM KCl, pH 7.5; size from a standard curve.
Data set [16] concerns the molecule itself. Description: SEC; Superdex Peptide 10/300 column, 80 micrograms C21Mms6, 50 mM Formate or Citrate, pH 3; size from a standard curve.
Data set [17] deals with the molecule itself. Description: SEC; Superdex Peptide 10/300 column, 80 micrograms C21Mms6, 20 mM Tris, 1.5 or 3 M KCl, pH 7.5; size from a standard curve.
Data set [18] concerns the molecule itself. Description: SEC; Superdex Peptide 10/300 column, 80 micrograms C21Mms6, 50 mM Formate or Citrate, pH 3 with FeCl3:protein = 8:1; size from a standard curve.

Where “and” joins values, the source holds several entries; their conditions need not be identical. Equal values may be shown once.

Regarding “Mms6 W79A (from UniProt Q2W8R5 1-133) (natural protein)”, the % protein in Vo in [1] was 79% and 83%.
“Mms6 W79F (from UniProt Q2W8R5 1-133) (natural protein)” returned a % protein in Vo in data set [2] of 96%.
In the case of “Mms6 L128G (from UniProt Q2W8R5 1-133) (natural protein)”, in data set [3], the % protein in Vo is 63% and 86%.
In the case of “Mms6 I117G (from UniProt Q2W8R5 1-133) (natural protein)”, the % protein in Vo in [4] is 94% and 95%.
As to “Mms6 W95F (from UniProt Q2W8R5 1-133) (natural protein)”, in [5], the % protein in Vo was 97%.
Consider “Mms6 L132G (from UniProt Q2W8R5 1-133) (natural protein)”, for which, in data set [6], the % protein in Vo is 29% and 37%.
Take “Mms6 L84A, L86A, L88A, L90A, L92A (GL repeat replaced with a GA repeat) (from UniProt Q2W8R5 1-133) (natural protein)”: the % protein in Vo in data set [7] is 55%; in data set [8], 46% and 54%.
As for “Mms6 W79F,W95F (from UniProt Q2W8R5 1-133) (natural protein)”, in data set [9], the % protein in Vo is 75% and 82%.
“Mms6 (wild type, mature form, His-tagged) (from UniProt Q2W8R5 1-133) (natural protein)” showed a % protein in Vo in [10] of 100%.
Regarding “Mms6 W95A (from UniProt Q2W8R5 1-133) (natural protein)”, in data set [11], the % protein in Vo is 49% and 70%.

B1: C21Mms6 (synthetic peptide of the C-terminal 21 amino acids of Mms6) (peptide, UniProt Q2W8R5 113-133, looked up)
peptide: KSRDIESAQSDEEVELRDALA
notes: Mms6, Magnetospirillum magneticum AMB-1, C-terminal 21 amino acids; also called synthetic 21 amino acid peptide C-terminal domain; source: synthetic peptide, ordered from GenScript
In the case of B1, the “stoichiometry N” value came out at 7.3 C21Mms6 units/multimer in data set [12]; 2 C21Mms6 units/multimer in data set [13]; 4.1 C21Mms6 units/multimer in [14]; 4 C21Mms6 units/multimer in [15]; 2 C21Mms6 units/multimer in data set [16]; 1.8 C21Mms6 units/multimer in [17]. The “stoichiometry N” value in data set [18] was 2.1 C21Mms6 units/multimer.

One may read the stoichiometry N as a count of units in the complex or per binding partner.
